Data as given in patent publication US20260167699A1 (Chugai, published 2026).

T1: FcγRIIa(H) extracellular domain, His-tagged (human, UniProt P12318 34-217)
T1 construct: extracellular domain; also called 2aH
T1 sequence: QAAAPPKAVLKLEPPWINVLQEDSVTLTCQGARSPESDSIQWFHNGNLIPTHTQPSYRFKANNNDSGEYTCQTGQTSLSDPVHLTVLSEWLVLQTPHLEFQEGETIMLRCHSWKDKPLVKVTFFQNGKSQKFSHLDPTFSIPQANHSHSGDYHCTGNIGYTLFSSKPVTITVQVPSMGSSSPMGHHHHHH

T2: FcγRIIa(R) extracellular domain, His-tagged (human, UniProt P12318 34-217)
T2 construct: extracellular domain; also called 2aR
T2 sequence: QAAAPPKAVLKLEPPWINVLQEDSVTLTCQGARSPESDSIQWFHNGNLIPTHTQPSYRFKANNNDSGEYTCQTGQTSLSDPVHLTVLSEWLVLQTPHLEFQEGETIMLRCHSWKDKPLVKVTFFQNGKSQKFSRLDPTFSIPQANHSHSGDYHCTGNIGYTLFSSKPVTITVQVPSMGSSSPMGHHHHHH

T3: FcγRIIb extracellular domain, His-tagged (human, UniProt P31994 43-217)
T3 construct: extracellular domain; also called 2b
T3 sequence: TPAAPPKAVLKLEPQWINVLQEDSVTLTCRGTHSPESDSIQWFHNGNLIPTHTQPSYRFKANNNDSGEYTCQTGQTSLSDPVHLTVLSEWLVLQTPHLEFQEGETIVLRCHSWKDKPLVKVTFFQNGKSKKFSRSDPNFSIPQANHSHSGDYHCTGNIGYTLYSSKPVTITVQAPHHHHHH


Tests used:
Assay in all cases: SPR, vs GpH7-A5/GpH7-B3/GpL16-k0 =100
[1] = target: T4, FcγRIIIa extracellular domain, His-tagged (human, UniProt P08637 17-208)
T4 construct: extracellular domain; also called 3a

[2] = target: T1, FcγRIIa(H) extracellular domain, …
[3] = target: T5, FcγRIa extracellular domain, His-tagged (human, UniProt P12314 16-292)
T5 construct: extracellular domain; also called 1a

[4] = target: T2, FcγRIIa(R) extracellular domain, …
[5] = target: T3, FcγRIIb extracellular domain, His-tagged

T5 sequence (P12314 other isoform, or with tags, fused parts or gaps): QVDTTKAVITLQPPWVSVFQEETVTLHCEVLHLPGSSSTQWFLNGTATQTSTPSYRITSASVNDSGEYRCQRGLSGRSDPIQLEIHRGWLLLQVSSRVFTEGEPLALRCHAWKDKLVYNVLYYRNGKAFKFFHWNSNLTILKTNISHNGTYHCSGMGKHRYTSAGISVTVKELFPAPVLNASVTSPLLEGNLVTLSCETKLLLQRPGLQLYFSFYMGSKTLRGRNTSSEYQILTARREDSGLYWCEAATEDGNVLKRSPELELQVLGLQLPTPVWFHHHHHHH
T4 sequence (P08637 other isoform, or with tags, fused parts or gaps): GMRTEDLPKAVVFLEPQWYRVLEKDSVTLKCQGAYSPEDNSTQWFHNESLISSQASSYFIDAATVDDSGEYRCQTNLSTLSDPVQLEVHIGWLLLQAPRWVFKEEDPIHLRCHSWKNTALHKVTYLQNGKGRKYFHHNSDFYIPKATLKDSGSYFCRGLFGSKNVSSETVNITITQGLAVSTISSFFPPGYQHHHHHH

Row | Binder | He/Con 3a [1] | He/Con 2aH [2] | He/Con 1a [3] | He/Con 2aR [4] | He/Con 2b [5]
1 | GpH7-A5/GpH7-B3 variant P271_12R/GpL16-k0 (antibody, human IgG1, kappa) heavy 1: not shown heavy 2: not shown light: DIVMTQSPLSLPVTPGEPASISCQASESLVHSNRNTYLHWYLQKPGQSPQLLIYKVSNRFSGVPDRFSGSGSGTDFTLKISRVEAEDVGVYYCSQNTHVPPTFGQGTKVEIERTVAAPSVFIFPPSDEQLKSGTASVVCLLNNFYPREAKVQWKVDNALQSGNSQESVTEQDSKDSTYSLSSTLTLSKADYEKHKVYACEVTHQGLSSPVTKSFNRGEC | 87.6 % of control | 100 % of control | 101 % of control | 95.8 % of control | 96.9 % of control
2 | GpH7-A5/GpH7-B3 variant P271_15Y/GpL16-k0 (antibody, human IgG1, kappa) heavy 1: not shown heavy 2: not shown light: DIVMTQSPLSLPVTPGEPASISCQASESLVHSNRNTYLHWYLQKPGQSPQLLIYKVSNRFSGVPDRFSGSGSGTDFTLKISRVEAEDVGVYYCSQNTHVPPTFGQGTKVEIERTVAAPSVFIFPPSDEQLKSGTASVVCLLNNFYPREAKVQWKVDNALQSGNSQESVTEQDSKDSTYSLSSTLTLSKADYEKHKVYACEVTHQGLSSPVTKSFNRGEC | 62.7 % of control | 74 % of control | 101 % of control | 70 % of control | 58.6 % of control
3 | GpH7-A5/GpH7-B3 variant Q295_07I/GpL16-k0 (antibody, human IgG1, kappa) heavy 1: not shown heavy 2: not shown light: DIVMTQSPLSLPVTPGEPASISCQASESLVHSNRNTYLHWYLQKPGQSPQLLIYKVSNRFSGVPDRFSGSGSGTDFTLKISRVEAEDVGVYYCSQNTHVPPTFGQGTKVEIERTVAAPSVFIFPPSDEQLKSGTASVVCLLNNFYPREAKVQWKVDNALQSGNSQESVTEQDSKDSTYSLSSTLTLSKADYEKHKVYACEVTHQGLSSPVTKSFNRGEC | 101 % of control | 117 % of control | 101 % of control | 97.3 % of control | 94.5 % of control
4 | GpH7-A5/GpH7-B3 variant P271_13S/GpL16-k0 (antibody, human IgG1, kappa) heavy 1: not shown heavy 2: not shown light: DIVMTQSPLSLPVTPGEPASISCQASESLVHSNRNTYLHWYLQKPGQSPQLLIYKVSNRFSGVPDRFSGSGSGTDFTLKISRVEAEDVGVYYCSQNTHVPPTFGQGTKVEIERTVAAPSVFIFPPSDEQLKSGTASVVCLLNNFYPREAKVQWKVDNALQSGNSQESVTEQDSKDSTYSLSSTLTLSKADYEKHKVYACEVTHQGLSSPVTKSFNRGEC | 79.8 % of control | 83.3 % of control | 101 % of control | 93.5 % of control | 98.2 % of control
5 | GpH7-A5/GpH7-B3 variant Q295_03V/GpL16-k0 (antibody, human IgG1, kappa) heavy 1: not shown heavy 2: not shown light: DIVMTQSPLSLPVTPGEPASISCQASESLVHSNRNTYLHWYLQKPGQSPQLLIYKVSNRFSGVPDRFSGSGSGTDFTLKISRVEAEDVGVYYCSQNTHVPPTFGQGTKVEIERTVAAPSVFIFPPSDEQLKSGTASVVCLLNNFYPREAKVQWKVDNALQSGNSQESVTEQDSKDSTYSLSSTLTLSKADYEKHKVYACEVTHQGLSSPVTKSFNRGEC | 86.2 % of control | 106 % of control | 102 % of control | 90.3 % of control | 84.9 % of control
6 | GpH7-A5/GpH7-B3 variant P271_20W/GpL16-k0 (antibody, human IgG1, kappa) heavy 1: not shown heavy 2: not shown light: DIVMTQSPLSLPVTPGEPASISCQASESLVHSNRNTYLHWYLQKPGQSPQLLIYKVSNRFSGVPDRFSGSGSGTDFTLKISRVEAEDVGVYYCSQNTHVPPTFGQGTKVEIERTVAAPSVFIFPPSDEQLKSGTASVVCLLNNFYPREAKVQWKVDNALQSGNSQESVTEQDSKDSTYSLSSTLTLSKADYEKHKVYACEVTHQGLSSPVTKSFNRGEC | 77.8 % of control | 88.7 % of control | 101 % of control | 76.6 % of control | 65.1 % of control
7 | GpH7-A5/GpH7-B3 variant P271_19Q/GpL16-k0 (antibody, human IgG1, kappa) heavy 1: not shown heavy 2: not shown light: DIVMTQSPLSLPVTPGEPASISCQASESLVHSNRNTYLHWYLQKPGQSPQLLIYKVSNRFSGVPDRFSGSGSGTDFTLKISRVEAEDVGVYYCSQNTHVPPTFGQGTKVEIERTVAAPSVFIFPPSDEQLKSGTASVVCLLNNFYPREAKVQWKVDNALQSGNSQESVTEQDSKDSTYSLSSTLTLSKADYEKHKVYACEVTHQGLSSPVTKSFNRGEC | 84.6 % of control | 90.7 % of control | 102 % of control | 95.1 % of control | 99.3 % of control
8 | GpH7-A5/GpH7-B3 variant P271_16H/GpL16-k0 (antibody, human IgG1, kappa) heavy 1: not shown heavy 2: not shown light: DIVMTQSPLSLPVTPGEPASISCQASESLVHSNRNTYLHWYLQKPGQSPQLLIYKVSNRFSGVPDRFSGSGSGTDFTLKISRVEAEDVGVYYCSQNTHVPPTFGQGTKVEIERTVAAPSVFIFPPSDEQLKSGTASVVCLLNNFYPREAKVQWKVDNALQSGNSQESVTEQDSKDSTYSLSSTLTLSKADYEKHKVYACEVTHQGLSSPVTKSFNRGEC | 70.3 % of control | 76.4 % of control | 100 % of control | 79 % of control | 76.2 % of control
9 | GpH7-A5/GpH7-B3 variant Q295_02A/GpL16-k0 (antibody, human IgG1, kappa) heavy 1: not shown heavy 2: not shown light: DIVMTQSPLSLPVTPGEPASISCQASESLVHSNRNTYLHWYLQKPGQSPQLLIYKVSNRFSGVPDRFSGSGSGTDFTLKISRVEAEDVGVYYCSQNTHVPPTFGQGTKVEIERTVAAPSVFIFPPSDEQLKSGTASVVCLLNNFYPREAKVQWKVDNALQSGNSQESVTEQDSKDSTYSLSSTLTLSKADYEKHKVYACEVTHQGLSSPVTKSFNRGEC | 111 % of control | 101 % of control | 103 % of control | 91.5 % of control | 89.4 % of control
10 | GpH7-A5/GpH7-B3 variant Q295_06M/GpL16-k0 (antibody, human IgG1, kappa) heavy 1: not shown heavy 2: not shown light: DIVMTQSPLSLPVTPGEPASISCQASESLVHSNRNTYLHWYLQKPGQSPQLLIYKVSNRFSGVPDRFSGSGSGTDFTLKISRVEAEDVGVYYCSQNTHVPPTFGQGTKVEIERTVAAPSVFIFPPSDEQLKSGTASVVCLLNNFYPREAKVQWKVDNALQSGNSQESVTEQDSKDSTYSLSSTLTLSKADYEKHKVYACEVTHQGLSSPVTKSFNRGEC | 100 % of control | 111 % of control | 102 % of control | 101 % of control | 101 % of control
11 | GpH7-A5/GpH7-B3 variant P271_14T/GpL16-k0 (antibody, human IgG1, kappa) heavy 1: not shown heavy 2: not shown light: DIVMTQSPLSLPVTPGEPASISCQASESLVHSNRNTYLHWYLQKPGQSPQLLIYKVSNRFSGVPDRFSGSGSGTDFTLKISRVEAEDVGVYYCSQNTHVPPTFGQGTKVEIERTVAAPSVFIFPPSDEQLKSGTASVVCLLNNFYPREAKVQWKVDNALQSGNSQESVTEQDSKDSTYSLSSTLTLSKADYEKHKVYACEVTHQGLSSPVTKSFNRGEC | 59.2 % of control | 69.8 % of control | 101 % of control | 94.7 % of control | 107 % of control
12 | GpH7-A5/GpH7-B3 variant P271_18N/GpL16-k0 (antibody, human IgG1, kappa) heavy 1: not shown heavy 2: not shown light: DIVMTQSPLSLPVTPGEPASISCQASESLVHSNRNTYLHWYLQKPGQSPQLLIYKVSNRFSGVPDRFSGSGSGTDFTLKISRVEAEDVGVYYCSQNTHVPPTFGQGTKVEIERTVAAPSVFIFPPSDEQLKSGTASVVCLLNNFYPREAKVQWKVDNALQSGNSQESVTEQDSKDSTYSLSSTLTLSKADYEKHKVYACEVTHQGLSSPVTKSFNRGEC | 94 % of control | 94.5 % of control | 102 % of control | 97.7 % of control | 105 % of control
13 | GpH7-A5/GpH7-B3 variant Q295_05P/GpL16-k0 (antibody, human IgG1, kappa) heavy 1: not shown heavy 2: not shown light: DIVMTQSPLSLPVTPGEPASISCQASESLVHSNRNTYLHWYLQKPGQSPQLLIYKVSNRFSGVPDRFSGSGSGTDFTLKISRVEAEDVGVYYCSQNTHVPPTFGQGTKVEIERTVAAPSVFIFPPSDEQLKSGTASVVCLLNNFYPREAKVQWKVDNALQSGNSQESVTEQDSKDSTYSLSSTLTLSKADYEKHKVYACEVTHQGLSSPVTKSFNRGEC | 74.4 % of control | 118 % of control | 102 % of control | 86.6 % of control | 75.7 % of control
14 | GpH7-A5/GpH7-B3 variant Q295_04F/GpL16-k0 (antibody, human IgG1, kappa) heavy 1: not shown heavy 2: not shown light: DIVMTQSPLSLPVTPGEPASISCQASESLVHSNRNTYLHWYLQKPGQSPQLLIYKVSNRFSGVPDRFSGSGSGTDFTLKISRVEAEDVGVYYCSQNTHVPPTFGQGTKVEIERTVAAPSVFIFPPSDEQLKSGTASVVCLLNNFYPREAKVQWKVDNALQSGNSQESVTEQDSKDSTYSLSSTLTLSKADYEKHKVYACEVTHQGLSSPVTKSFNRGEC | 75.1 % of control | 87.4 % of control | 101 % of control | 82.8 % of control | 72.6 % of control
